Data published in patent US20220119523A1, “TREATMENT OF CUTANEOUS T CELL LYMPHOMA WITH TARGETING OF CD47 PATHWAY” (The Board of Trustees of the Leland Stanford Junior …, priority 2019, published 2022).

Columns and labels:
[1] = test system: newly diagnosed AML patients 65 years or older; conditions: 75 mg/m^2 per day SC for 7 consecutive days per 28-day cycle, at least 6 cycles; conventional care regimens 6.5 months; cited from earlier work
HH tumor cells = assay: Xenograft tumor model, HH cells in NSG mice; type: in vivo; conditions: 250 μg intraperitoneal every other day, vs PBS
Experimental: (§1) Mice. 6-8 week old NSG (NOD.Cg-Prkdcscid Il2rgtm1Wjl/SzJ) mice were used.
(§2) Xenograft Tumor Models. […] For all treatments, antibodies where administered by intraperitoneal injection (100 μl) as follows: PBS and […] (250 μg) every other day. Tumor volume and survival was monitored.

HUT78 = assay: In vitro phagocytosis assay, HUT78 cell line; type: cell-based, human; conditions: HUT78 cells; macrophage from NOD scid gamma mice (NSG); vs IgG4 control antibody; FIG. 2A-2B
CTCL tumor cells = assay: In vitro phagocytosis assay, co-culture of macrophages with CTCL tumor cells; type: cell-based, human; conditions: for phagocytosis (percentage of GFP+ macrophages): 2 hours co-culture
Experimental: (§3) Cancer Cells. HH (CTCL lymphoblast ATCC); HuT78 (Sezary Syndrome CTCL, ATCC); HuT102 (Mycosis Fungoides CTCL, ATCC); and MJ (Mycosis Fungoides CTCL, ATCC) were cultured in RPMI (ThermoFisher S.) (DLD1), EMEM (ThermoFisher S.) (CACO-2, LS174T), McCoy's 5A (ThermoFisher S.) (HT29, HCT116), or Leibovitz's L-15 (ThermoFisher S.) (SW48, SW 620) supplemented with 10% fetal bovine serum (Omega Scientific), 100 U/mL penicillin and 100 μg/mL streptomycin (ThermoFisher S.)
(§4) In Vitro Phagocytosis Assay. Peripheral blood mononuclear cells were enriched by density gradient centrifugation and monocytes were purified with anti-CD14 microbeads (Miltenyi) and differentiated to macrophages by culture for 7-10 days in IMDM+GlutaMax (Invitrogen) supplemented with 10% AB-Human Serum (Invitrogen) and 100 U/mL penicillin and 100 μg/mL streptomycin (Invitrogen). Phagocytosis assays were performed by co-culture of 50,000 macrophages with 100,000 CTCL tumor cells for 2 hours, then analyzed using an LSRFortessa cell analyzer with high throughput sampler (BD Biosciences). Antibodies used for treatment included: IgG4 isotype control, anti-CD47—clone magrolimab (Stanford). Macrophages were identified by flow cytometry using anti-CD206 antibody. Dead cells were excluded from the analysis by staining with DAPI (Sigma). Phagocytosis was evaluated as the percentage of GFP+ macrophages and was normalized to the maximal response by each independent donor against each cell line.

HuT78 tumor cells = assay: Xenograft tumor model, HuT78 cells in NSG mice; type: in vivo; conditions: 250 μg intraperitoneal every other day, vs PBS
Experimental: as §1, §2

HH = assay: In vitro phagocytosis assay, HH cell line; type: cell-based, human; conditions: HH cells; macrophage from NOD scid gamma mice (NSG); vs IgG4 control antibody; FIG. 2A-2B
Experimental: as §3
as §4, with “Dead cells were excluded from the analysis by staining with DAPI (Sigma).” left out

## Nc1ncn([C@@H]2O[C@H](CO)[C@@H](O)[C@H]2O)c(=O)n1 [azacitidine]
[1]
  Median OS: 10.4 months

B1: Magrolimab: monoclonal antibody designed to block CD47; specifically binds human CD47; humanized 5F9 with IgG4 (antibody, chains of the INN, looked up, V domains shown)
VH: QVQLVQSGAEVKKPGASVKVSCKASGYTFTNYNMHWVRQAPGQRLEWMGTIYPGNDDTSYNQKFKDRVTITADTSASTAYMELSSLRSEDTAVYYCARGGYRAMDYWGQGTLVTVSS
VL: DIVMTQSPLSLPVTPGEPASISCRSSQSIVYSNGNTYLGWYLQKPGQSPQLLIYKVSNRFSGVPDRFSGSGSGTDFTLKISRVEAEDVGVYYCFQGSHVPYTFGQGTKLEIK
HH tumor cells; FIG. 4A
  tumor volume: reduced
HH tumor cells; FIG. 4B
  survival: improved
HUT78
  phagocytosis (percent of phagocytosis / percent of maximum phagocytosis): increased phagocytosis
CTCL tumor cells; human macrophages (FIG. 2B)
  phagocytosis (percentage of GFP+ macrophages): significant increase in phagocytosis
CTCL tumor cells; mouse macrophages (FIG. 2A)
  phagocytosis (percentage of GFP+ macrophages): significant increase in phagocytosis
HuT78 tumor cells; FIG. 5A
  tumor volume: reduced
HuT78 tumor cells; FIG. 5B
  survival: improved
HH
  phagocytosis (percent of phagocytosis / percent of maximum phagocytosis): increased phagocytosis

B2: anti-CCR4: antibody that corresponds to mogamulizumab, a defucosylated anti-CCR4 humanized IgG1 antibody binding the N-terminal domain of CCR4 (antibody, chains of the INN, looked up, V domains shown)
VH: EVQLVESGGDLVQPGRSLRLSCAASGFIFSNYGMSWVRQAPGKGLEWVATISSASTYSYYPDSVKGRFTISRDNAKNSLYLQMNSLRVEDTALYYCGRHSDGNFAFGYWGQGTLVTVSS
VL: DVLMTQSPLSLPVTPGEPASISCRSSRNIVHINGDTYLEWYLQKPGQSPQLLIYKVSNRFSGVPDRFSGSGSGTDFTLKISRVEAEDVGVYYCFQGSLLPWTFGQGTKVEIK
CTCL tumor cells; FIG. 3A-3B, combined antibodies
  phagocytosis, combination of anti-CD47 and anti-CCR4: synergizes with anti-CD47 antibody
CTCL tumor cells; FIG. 3A-3B, single agent
  phagocytosis, antibody by itself: little or no effect on phagocytosis
